The nature of this data set: label from the status in PepcDB records.
Regarding “MLSTTTIGFPRIGNQRQLKFAMESYFKGDSGEAELLAVAHKVQSDAWALQKAAGIAVIGLDGTLYDQVLDTITWLGAIPPRFKHLSGLQRYYAMARGGAALDMSKFFDTNYHYLVPELGPDVLGPATAAGAPLQPDFSGPLDKLARGQAVVGRERAVPILIGPVTFVSLSRGCELPLDQAVARLLPTYCALLQQLAAAGAPEVQLHEPVLATSEGAGMRAEFETAYAQMAQAAGSVPLHLVTYYDDLGAAYPWAVQLPVAAVTLDFLGPPGAAVPSQTLALLQQHGFPADKRLGAGVVDGRSVWKDDGTAVALLRALLDTGAVSSDRLVVTSSAPLQHLPYDLGLELEAPKTPEAEPHLPPALAARLGFAKQKVEEIVSVARLAASPAAAAAAAGHGAVVQLQRLQQGKGVEDHTADIPAEWFSRPKPYDVRREQQLQLPAFPTTTIGSFPQTAEVRRLRQQLKSGRLTQAEYEGLIAGHIAHAVGVQEALGIDVLVHGEAERTDMVEYFGMQLGGMLFTRAGWVQSYGSRCVRPPLVVDDITYRGPMTCWEYKVASAYTRKPVKGMLTGPVTILNWSFPRKDISRAAQAMQLGLALRQEVAALEAAGCTIIQVDDPALREGLPLKRERWASYLSWAVDAFRLCTGVAAAGTQVVTHLCYSDFQDILPAIDRMDADVLTIENSRSDNAMMAALAAAGYGRDIGPGVYDVHSPVVPSVEFIKSRIRSFVDSGILSGRYDRIWVNPDCGLKTRGWPETIAALRNMVEAAAQARAELQLAGGAAVAPVAGGVEAAGKGAALGAAAGTSRCVDCCH”, the protein production entry is on record as “not failed”. The result for “MSDVIEGRLKELGFTLPVAAAPAANYVPFTISGNLLYVSGQLPMESGKIAVTGLVGRDVDVASAQRAAELCAVNILAQVKAALNGDLSKIRRVIKLNGFVASVPEFVEQHLVINGASNLIATVLGEPGRHARAAVGMASLPFNASVEIDAIVEIDV” reads “not failed”; that for “MSPASGSVISCAKVLDDYFYGSSNTVEALLLNSFETPALLFTTETSNLLTDIREDRSRHIEKISPYLLLTAGILSGFNPCLLAVMAFLASVNLTQKGRRKEMLKITLGFSTGIFTMHMLAGLSILGTVNFLPELRSYFSEIAVVMTALLGFWHIYDAYWLRKHAKTTFRTPQPLKDFMSRMDEKNLLLLSFLAGGMFSLVKAPCVGAVYLSLLSLLAMKTDIVRGIEYIWIFNLGLLLPVVLLGLLLAFGLSPKTVTEFRERKRVGIRLITGSILISLALMMQFRIL”, “failed”. Turning to “MSAEEKNLIEILEEGHKVDVVKYIDYVSAPQAGAIATFSGTTRDMFEGKTVLELRYEAYVPMATRCLSSICTTARSTWDIHKIAVAHRLGPVPVGETSVLIAVSSVHRADGLDACKFLIDELKASVPIWKKEVYTNGEIWKENSEFMEKRLELAEKRDSIVKKTVVEEHRRRGCCGSKVRVEEDEEHKDITGDNKSSS”, the protein production entry was “failed”. “MEVYSMNFALGVILAFSAAFTWALTSVLSKVSMRRVSPLTLNFLRLVIASGFYLPLIIYLNLIPSKGIMWWVIVVFSGIIGFMIGDWLFLEGMKLLGVSRANMLTTLHPIITMVLAHYLLGRPLNAYLFLGAGLIILAVLLLLSEKSESGGINARGVLLVVVAELLWTIAILITDWLVSNEPPVLIAALRISSGILGGLPFLPKMWREIRKLRLGDMGLVFVISLLGTIVGQYLFIKSISLVSSTVATPVTESTPIMASLLAVVFLREKITSKLVASMMLSFIGILIIGVLG”: the protein production result is “failed”. Next, “MEFKDYYATLGVEPSAGDAEIKTAYRRLARKYHPDVSKEAGAEDKFKAINEAYEALRDPAKRKAYDQLKAQGFRPGDEFQAPPNYGGGQGFDFEEVFGNGGAGGGFSDFFESLFAGQRGGRPRGPGAGPGAGAGPQARGDTRAKLAVPLEAVYSGDSVRITINGKQLDVRVPKGVQPGQVIRLSGQGNGGGNLLLEIEYAAHPHFEVDGRNILYTLQVMPWQAALGTTISVPTLGGSVELKVPADSDAGRKLRLRGRGLPGTTPGDQIVELEILAPAPTDDAQKKAYRNLAKAFGETVS”: “failed”; “MEKIRQPTHAGSWYTDNPTKLSSDLEEWLNATGLTKSPDVRGVIAPHAGYSYSGRAAAYAFANIDPTNISRIFLLGPSHHFYTPKCALSTATVYKTPIGNLPVDVEMIKEIRAMGKFGMMDLRVDEAEHSMEMHLPYLAKVFEGNNVKVVPILVGAVSPENEAMYGELLAKYVDDPKNFFSVSSDFCHWGSRFNYMHYDNTHGAIHKSIEALDKKGMDIIETGDPDAFKKYLLEFENTICGRHPISIFLHMLKHSSSKIKINFLRYEQSSQCQTMRDSSVSYASAAAKLET”: “failed”. The result for “MSNQYDPSQPVVFTDFSPKEGGMRTRLYIEGSNFGNDPTKIHITIGGEKTKTIGADGKKIYCMVPSKAFDGIINVRVDGPDGKPIAEHTFEEEFKYTPATIVGTLLRKVDEDNNSAFQEGSFDEGASIPSNDCMVFDPKYKDGDNRLLFSSNHSDGLHLIDLTERTVKRLFPRTGYSTMYSFTFSADGDTLLFTDDHGQDNTTRANIYYSLRRENFRRIRPYNYGRTAYSLVYMDDGTIFYTTWWEGKVYKMIRNGAIPNIDENAEVAFSLSQISAVGGSHTILFRHPSNKFMYMLSDNFGAVFRADYDPVAKTFGNPSIIAGNMNDKSFKEGTGGSARFNKPQFGVFVKNEKYGEGIGPDNDQYDFYFCDRENHCIWKLDPHGVASLAAGRSNENADGKIWGYVDGNPLHEARFNQPAGLAYDPDTDMFYIGDIDNKGIRYMTTELEHHHHHH” reads “failed”.

As to “MPERVKRKRYALVGTGNRGTTMWGRELLAGWSDYVELVGICDLNLMRAERARAMMGSNAPLYDDFDRMMVEQRPELVIVCTPDDTHDDIIIRALEGGADVISEKPMTTTPEKIDRIRAAEAKSGRRVDVSFNYRFSPTAARIKELIDDGAIGTVTSVDFHWYLDNQHGADYFRRWHAFTEHSGSLFVHKATHHFDLLNWYLDSDPVEVKGFGQLLHYGKNGPFRGTRCRTCPHKDECDYFMDLGADPFLDALYEDPSSIDGYMRDACVFREEIDIPDTMSASIRYASGVQVSYSLNTYMPIEGHHIAFNGHKGRIEMRQYEKQPWAEPPADEILVVKSFGGGVERIWVPHEPGGHYGGDNRMRDMIFKPGSNDRLRQRAGSRAGAMSVLCGVAALKSARDGGSQPIKSLPL”, the protein production result is listed as “failed”.

Take “MSAPIEQPAWTKRMNANPQSQAAPVSAAQQDLQRLRTHLNTQIIGQSDLVDAMLIALLADGHMLVEGAPGLAKTRAIHVLSRGVEADFQRIQFTPDLLPADLTGTEVYRPQDGSFHFQPGPLFHNLVLADEINRSPAKVQSALLEAMAERQITVGRKTYPLPALFLVMATQNPIEQEGTYPLPEAQLDRFLMYVRIGYPGAEQEKAILRLVRGEAGRPECRAAEAMEPVSQQTLFSAREEVLGVYLAEALEDYLLQLILATREPARYGDSLARWILYGVSPRATLALDRCARARAWLDGRDYVTPDDIQALAPAILRHRLILSYEAEAEGVSSDQVVKDLLRRIAVP”: the protein production result is listed as “failed”.

Consider “MRFRNAILFVALAIAWGSAFTAIKAGLEYFPPILFAAFRYDLAGLLMLGYAVYATDQWVPKSRTDWIVVGIGGSLLIAAYHIFLFVGEQGTTSAAAAIVVSLSPILTTGFARAFLPDERLTTLGIVGLLVGFLGVGVLSNPDPGNLLNPRTVSLFLVFLAAASFALGSVLTRRFDDDLEIETMEAWSMLLGAVLMHGISFGVSESVADVQWTTEAVLALLYLVVVASALGFLIYFDLLERLGPIEINLVSYAAPVVAAATGLLFLSETPTVYTGVGFTCILVGFGLLKRDALRNEVARFSGTPNRGE”, for which the protein production result is given as “failed”. Next, “METNKYLELIKQELANMPDFVKEYNLGTSHSLTTTYQYLTEIRRFFDWLRQNNIASVSSNKEIEVTTLENLQRNDVMLYIHHLKHTKNQQGRLNSPTTINRSINALRSLYKFLTITSDNNHGEPYFDRNVMLKINSLNDTKTLNYRAHVLESHMYMGDLKYQFLDFIENEYIHKCNKQSLPAFKKNHERDMAIIALILGTGIRVSECVGVNMRNINLKDAMLDVTRKGGQKDSVPIAEWTIPYLKKYREIRADHYHAEKEDIAFFLTRWHGKTKRITTNAVEKMVNKYSAAFGKPLTPHKLRHTLASELYEVTKDQVLVAQQLGQKGTTATDLYTHVDQKKQKAALNKINRYKSSD”: “failed”; “MISNALKQGNLSPELEEKLVCMQKQQENANSTNEWETCSRGSVNEEALTPSRQTDDTEWKIRTSLRRPNAMTTSSQFNRILKKNRSKNDEVAELGEQKQSQLERHKELLKKNILRKRSLLERNLQSEIHEDVKTKVQRHVRPLSNASPDEQSENERSGEPNLDFKR”: “failed”; “MKEIVERVKTKTKIPVYERSVENVLSAVLASDDIWRIVDLSEEPLPLVVAILESLNELGYVTFEDGVKLTEKGEELVAEYGIGKRYDFTCPHCQGKTVDLQAFADLLEQFREIVKDRPEPLHEFDQAYVTPETTVARVILMHTRGDLENKDIFVLGDDDLTSIALMLSGLPKRIAVLDIDERLTKFIEKAANEIGYEDIEIFTFDLRKPLPDYALHKFDTFITDPPETLEAIRAFVGRGIATLKGPRCAGYFGITRRESSLDKWREIQKLLLNEFNVVITDIIRNFNEYVNWGYAEETRAWKLIPIKKLPEYNWYKSYMFRIETLEGSRGYEDEIPEEDIYNDEESST”: “not failed”. The result for “SSISQQTIAETDGDSAGSDSFPVGRTHHRWYLCHFGQSLIHVIQVVIGYFIMLAVMSYNTWIFLGVVLGSAVGYYLAYPLLSTA” reads “failed”. For “QAQITGRPEWIWLALGTALMGLGTLYFLVKGMGVSDPDAKKFYAITTLVPAIAFTMYLSMLLGYGLTMVPFGGEQNPIYWARYADWLFTTPLLLLDLALLVDADQGTILALVGADGIMIGTGLVGALTKVYSYRFVWWAISTAAMLYILYVLFFGFTSKAESMRPEVASTFKVLRNVTVVLWSAYPVVWLIGSEGAGIVPLNIETLLFMVLDVSAKVGFGLILLRSRAIFGEAEAPEPSAGDGAAATSD”, the protein production entry is “failed”.

Regarding “MVKDTLFSTPIAKLGDFIFDENVAEVFPDMIQRSVPGYSNIITAIGMLAERFVTADSNVYDLGCSRGAATLSARRNINQPNVKIIGIDNSQPMVERCRQHIAAYHSEIPVEILCNDIRHVEIKNASMVILNFTLQFLPPEDRIALLTKIYEGLNPNGVLVLSEKFRFEDTKINHLLIDLHHQFKRANGYSELEVSQKRTALENVMRTDSIETHKVRLKNVGFSQVELWFQCFNFGSMIAVK”, the protein production result is “not failed”.
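Further: failed if final PepcDB status was selected cloned or expressed and not failed if soluble or beyond.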
